Patent US20240199758A1, “METHOD FOR ALLOWING IMMUNE CELLS INFILTRATION IN TUMORS” (Alethia Biotherapeutics Inc., priority 2021, published 2024)
“Also recorded” adds a separate entry of the source.

How the values were obtained:
[1] = tested on: advanced solid malignancy; experiment: Phase I study AB-16B5-101: tumor response (RECIST) and best overall response; type: in vivo, human
[2] = Phase I study AB-16B5-101: plasma pharmacokinetics (non-compartmental analysis); type: in vivo, human; settings: for AUC 0-t / Cmax / Thalf: mean; for AUC 0-t / Cmax / Thalf / Tmax: plasma; for Tmax: median;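 as to AUC 0-t: ng·h/mL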
Excerpt: Plasma PK parameters for AB-16B5 were derived from the concentration-time profiles following the first dose of Cycle 1 and the first dose of Cycle 2 using a non-compartmental analysis (NCA) with Phoenix WinNonlin.

[3] = rhesus monkey, in vivo
[4] = tested on: CA 15-3, CA-125, CA 19-9, CEA, LDH and PSA; experiment: Phase I study: circulating tumor biomarkers; type: in vivo, human
Method: Several well-established circulating biomarkers were evaluated to monitor the response to therapy. They included CA 15-3, CA-125, CA 19-9, CEA, LDH and PSA.

[5] = Phase I study: detection of AB-16B5 in tumor biopsies; type: in vivo, human; settings: for Detection of AB-16B5 in Post-Treatment Biopsy: after Cycle 2 Day 15
Excerpt: Tumor biopsies were collected during the standard dose escalation to investigate the presence of AB-16B5 within the tumor. A total of 4 pre-treatment and 5 post-treatment tumor biopsies were suitable for analysis. These post-treatment tumor biopsies were collected following dosing on Cycle 2 Day 15 (between Cycle 2 Day 15 and Cycle 2 Day 18). The biopsy sites were liver (n=2), lymph node (n=2), bladder, skin and vulva.

[6] = Subject 001, Pancreatic, 1.5 mg/kg, 2 total cycles
[7] = Subject 002, Endometrium, 3.0 mg/kg, 4 total cycles
[8] = Subject 003, Soft Tissue Sarcoma, 6.0 mg/kg, 2 total cycles
[9] = Subject 005, Prostate, 6.0 mg/kg, 2 total cycles
[10] = Subject 010, Colorectal, 12.0 mg/kg, 4 total cycles
[11] = Subject 012, Breast, 12.0 mg/kg, 2 total cycles
[12] = Subject 013, Prostate, 12.0 mg/kg, 2 total cycles
[13] = Subject 014, Vulvar Melanoma, 12.0 mg/kg, 2 total cycles

AB-16B5: humanized IgG2 monoclonal antibody targeting sCLU for the inhibition of cancer-associated EMT; light chain SEQ ID NO:11, heavy chain SEQ ID NO:12
subjects with best overall response progressive disease (PD) ([1]; RECIST-evaluable population): 43%
Best Overall Response [1, 6]: PD (progressive disease (PD))
Tumor Response at Last Assessment: Non-Target Lesions [1, 6]: PD (New
Tumor Response at Last Assessment: Target Lesions [1, 6]: PD (progressive disease (PD))
Tumor Response at Last Assessment: Non-Target Lesions [1, 7]: Non-CR/
Tumor Response at Last Assessment: Target Lesions [1, 7]: PD (progressive disease (PD))
Best Overall Response [1, 8]: PD (progressive disease (PD))
Tumor Response at Last Assessment: Non-Target Lesions [1, 8]: PD (New
Tumor Response at Last Assessment: Non-Target Lesions ([1]; Subject 004, Thyroid, 6.0 mg/kg, 17 total cycles): Non-CR/
Best Overall Response [1, 9]: PD (progressive disease (PD))
Tumor Response at Last Assessment: Non-Target Lesions [1, 9]: Non-CR/
Tumor Response at Last Assessment: Target Lesions [1, 9]: PD (progressive disease (PD))
Tumor Response at Last Assessment: Non-Target Lesions ([1]; Subject 006, Breast, 9.0 mg/kg, 3 total cycles): Non-CR/
Tumor Response at Last Assessment: Non-Target Lesions ([1]; Subject 007, Gastric, 9.0 mg/kg, 8 total cycles): PD (New
Tumor Response at Last Assessment: Non-Target Lesions ([1]; Subject 008, Thyroid, 9.0 mg/kg, 4 total cycles): PD (New
Tumor Response at Last Assessment: Non-Target Lesions ([1]; Subject 009, Lung, 12.0 mg/kg, 6 total cycles): PD (New
Tumor Response at Last Assessment: Non-Target Lesions [1, 10]: PD (New
Tumor Response at Last Assessment: Target Lesions [1, 10]: PD (progressive disease (PD))
Best Overall Response [1, 11]: PD (progressive disease (PD))
Tumor Response at Last Assessment: Non-Target Lesions [1, 11]: PD (progressive disease (PD))
Best Overall Response [1, 12]: PD (progressive disease (PD))
Tumor Response at Last Assessment: Non-Target Lesions [1, 12]: PD (New
Best Overall Response [1, 13]: PD (progressive disease (PD))
Tumor Response at Last Assessment: Non-Target Lesions [1, 13]: PD (New
Tumor Response at Last Assessment: Non-Target Lesions ([1]; Subject 015, Ovarian Cancer, 12.0 mg/kg, 4 total cycles): PD (New
time on treatment with stable disease (SD) with clinical benefit ([1]; patient with advanced gastric cancer): 24 weeks
duration of SD ([1]; patient with follicular thyroid cancer): ~1 year
AUC 0-t ([2]; Cycle 1, 1.5 mg/kg (N = 1)): 230,321 ng * h/mL
Cmax ([2]; Cycle 1, 1.5 mg/kg (N = 1)): 17,958 ng/mL
Thalf ([2]; Cycle 1, 1.5 mg/kg (N = 1)): 9.35 h
Tmax ([2]; Cycle 1, 1.5 mg/kg (N = 1)): 1.17 h
AUC 0-t ([2]; Cycle 1, 3.0 mg/kg (N = 1)): 645,602 ng * h/mL
Cmax ([2]; Cycle 1, 3.0 mg/kg (N = 1)): 50,736 ng/mL
Thalf ([2]; Cycle 1, 3.0 mg/kg (N = 1)): 7.39 h
Tmax ([2]; Cycle 1, 3.0 mg/kg (N = 1)): 1.08 h
AUC 0-t ([2]; Cycle 1, 6.0 mg/kg (N = 3)): 1,357,773 ng * h/mL
Cmax ([2]; Cycle 1, 6.0 mg/kg (N = 3)): 117,663 ng/mL
Thalf ([2]; Cycle 1, 6.0 mg/kg (N = 3)): 6.99 h
Tmax ([2]; Cycle 1, 6.0 mg/kg (N = 3)): 1.00 h
AUC 0-t ([2]; Cycle 1, 9.0 mg/kg (N = 3)): 2,083,091 ng * h/mL
Cmax ([2]; Cycle 1, 9.0 mg/kg (N = 3)): 162,103 ng/mL
Thalf ([2]; Cycle 1, 9.0 mg/kg (N = 3)): 10.78 h
Tmax ([2]; Cycle 1, 9.0 mg/kg (N = 3)): 2.00 h
AUC 0-t ([2]; Cycle 1, 12.0 mg/kg (N = 7)): 4,045,786 ng * h/mL
Cmax ([2]; Cycle 1, 12.0 mg/kg (N = 7)): 256,977 ng/mL
Thalf ([2]; Cycle 1, 12.0 mg/kg (N = 7)): 11.99 h
Tmax ([2]; Cycle 1, 12.0 mg/kg (N = 7)): 1.12 h
increase of mean Cmax and AUC0-t with the dose ([2]; Cycle 1, dose range of 3.0 to 12.0 mg/kg): dose proportional
AUC 0-t ([2]; Cycle 2, 1.5 mg/kg (N = 1)): 188,584 ng * h/mL
Cmax ([2]; Cycle 2, 1.5 mg/kg (N = 1)): 15,662 ng/mL
Thalf ([2]; Cycle 2, 1.5 mg/kg (N = 1)): 7.97 h
Tmax ([2]; Cycle 2, 1.5 mg/kg (N = 1)): 1.00 h
AUC 0-t ([2]; Cycle 2, 3.0 mg/kg (N = 1)): 688,934 ng * h/mL
Cmax ([2]; Cycle 2, 3.0 mg/kg (N = 1)): 61,466 ng/mL
Thalf ([2]; Cycle 2, 3.0 mg/kg (N = 1)): 6.82 h
Tmax ([2]; Cycle 2, 3.0 mg/kg (N = 1)): 1.05 h
AUC 0-t ([2]; Cycle 2, 6.0 mg/kg (N = 3)): 1,351,156 ng * h/mL
Cmax ([2]; Cycle 2, 6.0 mg/kg (N = 3)): 120,466 ng/mL
Thalf ([2]; Cycle 2, 6.0 mg/kg (N = 3)): 7.70 h
Tmax ([2]; Cycle 2, 6.0 mg/kg (N = 3)): 1.03 h
AUC 0-t ([2]; Cycle 2, 9.0 mg/kg (N = 3)): 2,459,988 ng * h/mL
Cmax ([2]; Cycle 2, 9.0 mg/kg (N = 3)): 163,840 ng/mL
Thalf ([2]; Cycle 2, 9.0 mg/kg (N = 3)): 13.75 h
Tmax ([2]; Cycle 2, 9.0 mg/kg (N = 3)): 1.08 h
AUC 0-t ([2]; Cycle 2, 12.0 mg/kg (N = 7)): 4,147,243 ng * h/mL
Cmax ([2]; Cycle 2, 12.0 mg/kg (N = 7)): 230,268 ng/mL
Thalf ([2]; Cycle 2, 12.0 mg/kg (N = 7)): 21.04 h
Tmax ([2]; Cycle 2, 12.0 mg/kg (N = 7)): 1.04 h
increase of mean Cmax and AUC0-t with the dose ([2]; Cycle 2, dose range of 3.0 to 12.0 mg/kg): dose proportional
systemic exposure versus dose ([2]; across all dose levels): increased in a dose proportional manner
accumulation of AB-16B5 ([2]; between Cycle 1 and Cycle 2): No significant accumulation
emesis during infusion [3]: Few episodes of emesis
signs of overt toxicity [3]: did not result in any signs of overt toxicity
treatment-related effects on body weight, ophthalmology, electrocardiography and organ weight [3]: no treatment-related effects
animals with hepatocellular vacuolation in the liver ([3]; 100 mg/kg): 2 animals
level of CEA ([4]; circulating): remained stable or decreased in few patients
tumor biomarker levels ([4]; circulating CA 15-3, CA-125, CA 19-9, CEA, LDH, PSA, correlated with disease progression): increased over time
presence of AB-16B5 in post-treatment tumor biopsies ([5]; 5 post-treatment tumor biopsies): confirmed in all post-treatment tumor biopsies analyzed; also recorded: confirmed in all 5 pts
Detection of AB-16B5 in Post-Treatment Biopsy ([5]; Subject 009, Lung, biopsy site Liver): Positive
Detection of AB-16B5 in Post-Treatment Biopsy ([5]; Subject 010, Colorectal, biopsy site Liver): Positive
Detection of AB-16B5 in Post-Treatment Biopsy ([5]; Subject 012, Breast, biopsy site Skin): Positive
Detection of AB-16B5 in Post-Treatment Biopsy ([5]; Subject 013, Prostate, biopsy site Bladder): Positive
Detection of AB-16B5 in Post-Treatment Biopsy ([5]; Subject 015, Ovarian, biopsy site Lymph node): Positive
